Experimental data taken from paper PMC10248533 (The Journal of Biological Chemistry, 2023).

Target: the molecule itself
Experiment: native MS; 50 μM protein exchanged into 200 mM ammonium acetate pH 7.4; nano electrospray, Q Exactive UHMR

B1: AtGet3dΔ1–57 from His8-SUMO-GSx2-AtGet3dΔ1–57 (native mass spectrometry sample) (natural protein, Arabidopsis thaliana, UniProt Q6DYE4 58-455, looked up)
chain: TKFVTFLGKGGSGKTTAAVFAAQHYALAGLSTCLVIHNQDPSAEFLLGSKIGTSPTLINDNLSVIRLETTKMLLEPLKQLKQADARLNMTQGVLEGVVGEELGVLPGMDSIFSMLELERLVGFFRQATRKNHKGKPFDVIIYDGISTEETLRMIGLSSKTRLYAKYLRSLAEKTDLGRLTSPSIMRFVDESMNINSNKSPFDGMTSPAMWDTLERFLETGASAWRDPERFRSFLVMDPNNPMSVKAALRYWGCTVQAGSHVSGAFAISSSHLTSQIPKADFVPLPFASASVPFTITGLDWDKILLDQANSSIRELLSETVSHGTSLTQTVMFDTAKKLVTLFMPGFEKSEIKLYQYRGGSELLIEAGDQRRVIHLPSQIQGKVGGAKFVDRSLIVTMR
notes: Get3d, Arabidopsis thaliana, UniProt Q6DYE4, without the first 57 amino acids (chloroplast transit peptide); Dialysed with Ulp1 after Ni-NTA; the GSx2 linker between SUMO and AtGet3d probably stays on the N-terminus after cleavage (surmised); Copurifies with small molecules of about 750 Da; source: E. coli NiCo21(DE3), purified (Ni-NTA, Ulp1 digestion, Superdex 200 SEC); not shown: His8, …
B1 was tested, and the “stoichiometry N” value was 2.
